The target in this assay is T1, endogenous EphB2 receptor of HRMEC (human, UniProt P29323 19-1055).
T1 construct: whole, on cells; also called Nuk
T1 sequence (looked up): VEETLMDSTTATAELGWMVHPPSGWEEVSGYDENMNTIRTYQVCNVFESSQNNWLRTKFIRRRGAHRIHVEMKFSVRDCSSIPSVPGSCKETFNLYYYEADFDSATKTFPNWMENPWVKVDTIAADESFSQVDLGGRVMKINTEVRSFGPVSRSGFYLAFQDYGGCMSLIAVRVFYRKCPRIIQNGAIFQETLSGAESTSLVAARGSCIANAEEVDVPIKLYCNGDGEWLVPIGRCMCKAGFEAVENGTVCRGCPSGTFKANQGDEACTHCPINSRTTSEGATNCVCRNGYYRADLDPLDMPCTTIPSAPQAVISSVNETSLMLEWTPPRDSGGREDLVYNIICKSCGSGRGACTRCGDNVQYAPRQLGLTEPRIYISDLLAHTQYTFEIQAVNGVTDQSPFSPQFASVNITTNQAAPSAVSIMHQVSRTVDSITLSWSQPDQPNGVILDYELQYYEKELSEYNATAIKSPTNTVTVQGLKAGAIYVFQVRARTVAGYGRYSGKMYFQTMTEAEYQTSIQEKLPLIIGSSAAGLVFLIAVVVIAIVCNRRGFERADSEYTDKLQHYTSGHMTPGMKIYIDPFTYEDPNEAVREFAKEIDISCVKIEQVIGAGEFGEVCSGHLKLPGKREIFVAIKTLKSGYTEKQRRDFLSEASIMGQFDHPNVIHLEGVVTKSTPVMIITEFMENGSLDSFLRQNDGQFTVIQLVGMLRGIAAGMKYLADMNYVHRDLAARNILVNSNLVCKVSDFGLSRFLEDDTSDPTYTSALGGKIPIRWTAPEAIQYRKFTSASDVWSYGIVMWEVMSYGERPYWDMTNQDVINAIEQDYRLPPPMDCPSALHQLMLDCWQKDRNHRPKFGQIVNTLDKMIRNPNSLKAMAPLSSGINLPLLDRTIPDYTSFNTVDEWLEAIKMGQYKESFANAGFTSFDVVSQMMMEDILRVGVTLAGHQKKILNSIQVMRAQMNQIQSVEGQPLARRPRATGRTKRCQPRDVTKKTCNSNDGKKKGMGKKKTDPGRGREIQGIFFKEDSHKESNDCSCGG
Kind of assay: co-immunoprecipitation from HRMEC stimulated with dimeric or multimeric ephrin-B1/Fc, immunoblot. A general note: A western blot detects proteins with antibodies after separation by electrophoresis.

We go through one molecule from patent US20030157712A1 (VANDERBILT UNIVERSITY, published 2003).

Procedure: Ligand stimulation and immunoprecipitation of endogenous EphB receptors. Primary HRMEC were used at passages 3-6, as described (12). […] Ninety min prior to ligand stimulation, cells (2×10⁵cells/60 mm dish) were plated on Matrigel-(Collaborative Biomedical Products, Becton Dickinson, Bedford, Mass., as recommended) or fibronectin-coated (29) dishes. […] Cells were incubated with agonists at 37° C. for 10 min, or as described in the figure legends. Immunoprecipitations were conducted on either cell lysates (P19) or on Triticum vulgaris lectin affinity purified fractions of HRMEC (15) (needed to reduce the background from Matrigel). Precipitated proteins were analyzed by immunoblot (15).

B1: endogenous EphB1 receptor of human endothelial cells (HRMEC; HUVEC) (receptor, UniProt P54762 18-984, looked up)
chain: MEETLMDTRTATAELGWTANPASGWEEVSGYDENLNTIRTYQVCNVFEPNQNNWLLTTFINRRGAHRIYTEMRFTVRDCSSLPNVPGSCKETFNLYYYETDSVIATKKSAFWSEAPYLKVDTIAADESFSQVDFGGRLMKVNTEVRSFGPLTRNGFYLAFQDYGACMSLLSVRVFFKKCPSIVQNFAVFPETMTGAESTSLVIARGTCIPNAEEVDVPIKLYCNGDGEWMVPIGRCTCKPGYEPENSVACKACPAGTFKASQEAEGCSHCPSNSRSPAEASPICTCRTGYYRADFDPPEVACTSVPSGPRNVISIVNETSIILEWHPPRETGGRDDVTYNIICKKCRADRRSCSRCDDNVEFVPRQLGLTECRVSISSLWAHTPYTFDIQAINGVSSKSPFPPQHVSVNITTNQAAPSTVPIMHQVSATMRSITLSWPQPEQPNGIILDYEIRYYEKEHNEFNSSMARSQTNTARIDGLRPGMVYVVQVRARTVAGYGKFSGKMCFQTLTDDDYKSELREQLPLIAGSAAAGVVFVVSLVAISIVCSRKRAYSKEAVYSDKLQHYSTGRGSPGMKIYIDPFTYEDPNEAVREFAKEIDVSFVKIEEVIGAGEFGEVYKGRLKLPGKREIYVAIKTLKAGYSEKQRRDFLSEASIMGQFDHPNIIRLEGVVTKSRPVMIITEFMENGALDSFLRQNDGQFTVIQLVGMLRGIAAGMKYLAEMNYVHRDLAARNILVNSNLVCKVSDFGLSRYLQDDTSDPTYTSSLGGKIPVRWTAPEAIAYRKFTSASDVWSYGIVMWEVMSFGERPYWDMSNQDVINAIEQDYRLPPPMDCPAALHQLMLDCWQKDRNSRPRFAEIVNTLDKMIRNPASLKTVATITAVPSQPLLDRSIPDFTAFTTVDDWLSAIKMVQYRDSFLTAGFTSLQLVTQMTSEDLLRIGITLAGHQKKILNSIHSMRVQISQSPTAMA
notes: whole, on cells; In the co-precipitation entries the receptor was tyrosine phosphorylated after stimulation of the cells; also called ELK
On to B1, for which the binding result is reported as “no binding”.
